Measurements published in patent publication US20230218777A1 (Stanford University, published 2023).

B1: affinity-matured nanobody R13 (VHH)
VHH: QVQLQESGGGLVQAGGSLRLSCAASGTIFQVSSMGWYRQAPGKERKFVATIADGSSTNYAGSVKGRFTISRDNAKNTVYLQMNSLKPEDTAVYYCAALGQVSEYNSASYEWTYPYWGQGTQVTVSS
B2: affinity-matured nanobody R18 (VHH)
VHH: QVQLQESGGGLVQAGGSLRLSCAASGSISRDYDMGWYRQAPGKERKFVAGINVGGTTNYAGSVKGRFTISRDNAKNTVYLQMNSLKPEDTAVYYCAVHAVYTDGWEDGYLYPLPYWGQGTQVTVSS

Biological target: SARS-CoV-2 Spike protein (SARS-CoV-2, UniProt P0DTC2 14-1273)
Test: cell-based or functional assay

Binder	neutralizing effect calculated by IC50 (SARS-CoV-2 pseudovirus on hACE2-293T cells), against parental R13 [times]	neutralizing effect calculated by IC50 (SARS-CoV-2 pseudovirus on hACE2-293T cells), against parental R18 [times]
B1	~100	–
B2	–	~100
